To fix the notation:
B1: LINE1-full (parent)
chain: UACGUAGGUGGUUUUCCCCUGAUAGUGCUAAGGGGGCCUGGAAGUUUGGACUGGGCAGAGCUCAACACAGCGUGGCAAAGUGGCUGUGGCUAGACUGCCUCUCUGGAUUCCUCGUCACUCAGCAGGGCAUCUCUGAGAGAAAUGCC

Self-cleavage data for 167 variants are collected here from the RNAGym collection of RNA variant scans (doi:10.7554/elife.90254).

This data set covers variants of B1. As to the kind of experiment: self-cleavage, relative activity (ratio to wild type); higher = more cleavage; in vitro, sequencing; the parent is a self-cleaving ribozyme.
As to A30G A94U, the self-cleavage was 0.64.

For A30G A94G, the self-cleavage is 0.34.

As for A31G A117C, the self-cleavage was 2.3.

Take A30G U130C: the self-cleavage is 1.36.

In the case of U29A U108C, the self-cleavage was 2.61.

As for A31G G32U, the self-cleavage came out at 1.13.

Consider A31G G32A, for which the self-cleavage turned out to be 1.25.

As for U29C C98U, the self-cleavage stood at 0.42.

Take A30C U81C: the self-cleavage is 0.92.

In the case of U29A U109C, the self-cleavage turned out to be 1.25.

In the case of U29C G41A, the self-cleavage amounted to 1.32.

In the case of U29C G41U, the self-cleavage worked out at 0.65.

Consider A30U G49U, for which the self-cleavage is 0.85.

With A30U C113U, the self-cleavage stood at 0.88.

For the variant A30U A140G, the self-cleavage amounted to 1.76.

Turning to A30U A140U, the self-cleavage was found to be 0.67.

Consider A31C A140G, for which the self-cleavage came to 1.18.

For U29C U39G, the self-cleavage is 0.51.

Take U29C U39C: the self-cleavage came to 1.74.

For the variant U29C A65U, the self-cleavage is 0.42.

Take A30G A57U: the self-cleavage was 0.27.

As to A30G A57C, the self-cleavage is 0.

Turning to A30U C37G, the self-cleavage stood at 0.81.

Regarding A30U U115C, the self-cleavage is 1.16.

U29C U108G: the self-cleavage amounted to 1.2.

For the variant A31U C61A, the self-cleavage stood at 0.13.

On to A30G G114A, for which the self-cleavage turned out to be 0.92.

As to U29C G144A, the self-cleavage was 1.22.

Consider U29A U104A, for which the self-cleavage was 1.26.

On to U29G U115C, for which the self-cleavage amounted to 0.63.

As to A30C A136U, the self-cleavage was found to be 1.19.

With A30G U81A, the self-cleavage is 1.7.

Consider A30G U81C, for which the self-cleavage is 1.33.

Consider U29G A64G, for which the self-cleavage is 0.6.

Consider A31G A138U, for which the self-cleavage was found to be 1.05.

With U29C A136G, the self-cleavage amounted to 0.92.

In the case of U29A U81C, the self-cleavage turned out to be 0.92.

As for A31U U39A, the self-cleavage was found to be 1.05.

Consider A30G U52A, for which the self-cleavage amounted to 1.21.

As to A30G U52C, the self-cleavage is 1.53.

Turning to A30G C84G, the self-cleavage is 0.17.

A30G C84A: the self-cleavage came to 0.22.

A31G C37U: the self-cleavage is 1.6.

As for A31G C37A, the self-cleavage was found to be 1.32.

As to A30G G89C, the self-cleavage came out at 0.07.

U29C A31U: the self-cleavage worked out at 1.

For the variant U29C G74A, the self-cleavage stood at 1.11.

As for U29C U73A, the self-cleavage worked out at 1.59.

Take A31U G32A: the self-cleavage is 1.56.

Regarding A30G U132C, the self-cleavage is 1.05.

Consider A30G U45C, for which the self-cleavage was 1.38.

For the variant A30G A43G, the self-cleavage stood at 0.78.

As for A31G U39C, the self-cleavage was 1.17.

U29C U87C: the self-cleavage was found to be 0.41.

Consider U29C U87A, for which the self-cleavage turned out to be 0.16.

Turning to U29C A64U, the self-cleavage came to 0.54.

Regarding A30C U52C, the self-cleavage stood at 0.33.

In the case of A30U G40U, the self-cleavage came out at 0.97.

On to A31C A69G, for which the self-cleavage turned out to be 0.33.

With A30G U85C, the self-cleavage stood at 0.45.

A31C U143A: the self-cleavage stood at 1.01.

For A30G G126C, the self-cleavage came out at 1.72.

Regarding A31G U87A, the self-cleavage was 0.13.

For U29G A78G, the self-cleavage was 0.87.

Consider A31G A129G, for which the self-cleavage is 1.05.

For A30G U115C, the self-cleavage turned out to be 1.12.

A31G A64G: the self-cleavage was found to be 0.31.

For A31U G70A, the self-cleavage came out at 0.26.

As for A31G C118U, the self-cleavage was 1.73.

On to A31G G83A, for which the self-cleavage worked out at 0.69.

For the variant U29A G74A, the self-cleavage was found to be 0.59.

Regarding A30U G33A, the self-cleavage stood at 1.23.

Consider A30G U87C, for which the self-cleavage worked out at 0.11.

Take A30G A124U: the self-cleavage stood at 1.44.

For U29C G125A, the self-cleavage was 0.94.

For the variant A31G G126A, the self-cleavage worked out at 1.32.

Consider U29G C71G, for which the self-cleavage was determined as 0.23.

For A30G A140C, the self-cleavage is 0.93.

For the variant U29A U39G, the self-cleavage was determined as 1.58.

As for A30G, the self-cleavage worked out at 1.09.

Regarding A30C, the self-cleavage was found to be 1.27.

In the case of A30U, the self-cleavage was found to be 1.1.

As for A31C A129U, the self-cleavage stood at 1.51.

A31G C90A: the self-cleavage was 0.12.

For the variant A30U A59G, the self-cleavage was found to be 0.22.

As to A30G G41U, the self-cleavage was 1.66.

U29C G34A: the self-cleavage is 0.73.

As to U29C A43G, the self-cleavage was found to be 1.29.

With U29C A43U, the self-cleavage was determined as 1.18.

On to A30U A65U, for which the self-cleavage was determined as 0.19.

Take U29G U87C: the self-cleavage was 0.19.

As to A31U C110A, the self-cleavage came out at 0.91.

For U29C G32A, the self-cleavage was determined as 1.08.

With A31G C38U, the self-cleavage was 0.99.

Take A31G G34A: the self-cleavage turned out to be 0.77.

U29A U46C: the self-cleavage worked out at 1.21.

As for A30U U143G, the self-cleavage turned out to be 1.38.

On to A30U U143C, for which the self-cleavage stood at 0.77.

With A30U U39G, the self-cleavage is 1.46.

Regarding A30U U39C, the self-cleavage was 0.85.

On to A30G C116U, for which the self-cleavage was determined as 1.27.

For A30G A67U, the self-cleavage came to 0.1.

Regarding A30G A67G, the self-cleavage worked out at 0.51.

Turning to A30G A142U, the self-cleavage was 0.99.

Consider A30G A142G, for which the self-cleavage stood at 1.07.

On to A30G C99U, for which the self-cleavage amounted to 1.03.

Turning to U29C U130C, the self-cleavage came to 1.52.

Turning to U29C U130A, the self-cleavage stood at 1.26.

A30C A50G: the self-cleavage turned out to be 1.21.

In the case of A30U A121C, the self-cleavage was 0.55.

Take A30U A121G: the self-cleavage was 1.08.

Consider A30G G48A, for which the self-cleavage was determined as 0.5.

For the variant A30G G53A, the self-cleavage turned out to be 0.94.

With A30U C61G, the self-cleavage worked out at 0.08.

In the case of U29C C111U, the self-cleavage turned out to be 1.13.

As for U29C U100A, the self-cleavage was determined as 1.42.

As to A30U U47G, the self-cleavage turned out to be 0.8.

On to A30U U47C, for which the self-cleavage stood at 1.07.

Take A30G G106U: the self-cleavage is 0.83.

Consider A30G A77G, for which the self-cleavage was found to be 2.12.

As for U29C C113U, the self-cleavage was found to be 1.44.

As to A31C A138G, the self-cleavage worked out at 1.31.

In the case of A31U A140U, the self-cleavage is 0.94.

For A31U A140G, the self-cleavage was found to be 0.81.

Turning to A30G U47A, the self-cleavage turned out to be 1.57.

In the case of A30G U47C, the self-cleavage worked out at 1.09.

As to A31G A57U, the self-cleavage turned out to be 0.3.

Turning to A31G A57G, the self-cleavage was determined as 0.95.

Take A31U A67U: the self-cleavage is 0.3.

With A31G A69G, the self-cleavage turned out to be 0.78.

In the case of U29C C116A, the self-cleavage came out at 1.16.

On to A31G C128U, for which the self-cleavage worked out at 1.02.

With U29A U115C, the self-cleavage came out at 1.98.

With A31U G125U, the self-cleavage came to 1.37.

As for A30U U81C, the self-cleavage came out at 1.52.

With A30U U119C, the self-cleavage came out at 0.5.

Take U29A U47C: the self-cleavage worked out at 0.

With A30G G125U, the self-cleavage was found to be 1.47.

On to A30G U100A, for which the self-cleavage was 1.59.

As for A30G U100C, the self-cleavage was 1.07.

For the variant A30C G36A, the self-cleavage is 1.09.

A31U C101U: the self-cleavage is 0.58.

For U29A U85C, the self-cleavage is 0.29.

Regarding U29A U85A, the self-cleavage came to 0.12.

On to U29C C101G, for which the self-cleavage was determined as 0.89.

As to A30U G74C, the self-cleavage was 1.27.

As to U29C U46C, the self-cleavage amounted to 1.36.

With U29C U109A, the self-cleavage came out at 1.28.

For U29A U96C, the self-cleavage is 0.13.

As for U29C G82A, the self-cleavage was found to be 1.44.

In the case of U29G C99A, the self-cleavage was determined as 0.42.

As for A31G U45A, the self-cleavage is 0.85.

In the case of A31G U45C, the self-cleavage came to 1.07.

Consider A30C A65G, for which the self-cleavage amounted to 0.08.

On to A31G U62C, for which the self-cleavage came out at 0.13.

Consider U29C U62A, for which the self-cleavage was 0.03.

With U29A G41A, the self-cleavage was found to be 1.7.

Regarding A31C A59G, the self-cleavage was 0.26.

For the variant A31C A59C, the self-cleavage is 0.61.

Regarding A30G C71U, the self-cleavage was 0.85.

Consider U29C A94U, for which the self-cleavage is 0.56.

On to A30G A65U, for which the self-cleavage turned out to be 0.39.

Regarding A30U A69G, the self-cleavage turned out to be 0.4.

A30U U85C: the self-cleavage is 0.1.

Take A31U G144A: the self-cleavage was found to be 0.96.

In the case of A31U G144U, the self-cleavage is 1.03.

For the variant A31C A141G, the self-cleavage came out at 1.43.
